Laboratory results reported in publication PMC11825685 (Nature Communications, 2024).

Legend:
[1] = target: Mycobacterium tuberculosis (Mtb) PhoP, phosphorylated (Mycobacterium tuberculosis) (UniProt P71814); experiment: cryo-EM structure
cryo-EM structure = target: the molecule itself; experiment: cryo-EM structure
Mtb RNAP α subunit = target: T1, Mtb RNAP α subunit (Mycobacterium tuberculosis, UniProt P9WGZ1); experiment: cryo-EM structure
T1 sequence: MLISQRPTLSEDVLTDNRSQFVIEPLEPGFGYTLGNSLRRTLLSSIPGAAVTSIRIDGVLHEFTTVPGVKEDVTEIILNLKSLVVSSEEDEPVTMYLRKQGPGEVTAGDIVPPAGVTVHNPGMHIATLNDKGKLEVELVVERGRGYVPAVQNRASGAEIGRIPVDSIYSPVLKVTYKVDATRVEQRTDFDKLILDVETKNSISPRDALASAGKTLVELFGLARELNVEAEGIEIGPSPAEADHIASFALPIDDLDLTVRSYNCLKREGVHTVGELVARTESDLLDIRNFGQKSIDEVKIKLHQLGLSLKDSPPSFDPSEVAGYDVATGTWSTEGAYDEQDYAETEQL

Mtb RNAP σ^A = target: T2, Mtb RNAP σ^A (Mycobacterium tuberculosis, UniProt P9WGI1); experiment: cryo-EM structure
T2 sequence: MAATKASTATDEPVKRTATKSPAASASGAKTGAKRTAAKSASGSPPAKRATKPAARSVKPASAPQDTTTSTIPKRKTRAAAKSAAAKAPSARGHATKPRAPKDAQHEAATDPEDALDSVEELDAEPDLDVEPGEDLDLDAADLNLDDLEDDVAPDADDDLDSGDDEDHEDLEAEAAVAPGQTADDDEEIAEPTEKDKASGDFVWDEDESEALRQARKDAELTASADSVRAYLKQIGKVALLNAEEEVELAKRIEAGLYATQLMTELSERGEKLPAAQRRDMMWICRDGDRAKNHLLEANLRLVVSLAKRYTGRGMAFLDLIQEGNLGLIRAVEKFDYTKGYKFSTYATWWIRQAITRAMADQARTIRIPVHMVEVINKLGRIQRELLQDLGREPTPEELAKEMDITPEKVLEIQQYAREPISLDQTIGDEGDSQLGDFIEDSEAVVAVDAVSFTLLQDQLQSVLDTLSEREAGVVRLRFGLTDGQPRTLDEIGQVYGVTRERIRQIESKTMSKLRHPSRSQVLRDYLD

Mtb RNAP β subunit = target: T3, Mtb RNAP β subunit (Mycobacterium tuberculosis, UniProt P9WGY9 1-1178); experiment: cryo-EM structure
T3 sequence: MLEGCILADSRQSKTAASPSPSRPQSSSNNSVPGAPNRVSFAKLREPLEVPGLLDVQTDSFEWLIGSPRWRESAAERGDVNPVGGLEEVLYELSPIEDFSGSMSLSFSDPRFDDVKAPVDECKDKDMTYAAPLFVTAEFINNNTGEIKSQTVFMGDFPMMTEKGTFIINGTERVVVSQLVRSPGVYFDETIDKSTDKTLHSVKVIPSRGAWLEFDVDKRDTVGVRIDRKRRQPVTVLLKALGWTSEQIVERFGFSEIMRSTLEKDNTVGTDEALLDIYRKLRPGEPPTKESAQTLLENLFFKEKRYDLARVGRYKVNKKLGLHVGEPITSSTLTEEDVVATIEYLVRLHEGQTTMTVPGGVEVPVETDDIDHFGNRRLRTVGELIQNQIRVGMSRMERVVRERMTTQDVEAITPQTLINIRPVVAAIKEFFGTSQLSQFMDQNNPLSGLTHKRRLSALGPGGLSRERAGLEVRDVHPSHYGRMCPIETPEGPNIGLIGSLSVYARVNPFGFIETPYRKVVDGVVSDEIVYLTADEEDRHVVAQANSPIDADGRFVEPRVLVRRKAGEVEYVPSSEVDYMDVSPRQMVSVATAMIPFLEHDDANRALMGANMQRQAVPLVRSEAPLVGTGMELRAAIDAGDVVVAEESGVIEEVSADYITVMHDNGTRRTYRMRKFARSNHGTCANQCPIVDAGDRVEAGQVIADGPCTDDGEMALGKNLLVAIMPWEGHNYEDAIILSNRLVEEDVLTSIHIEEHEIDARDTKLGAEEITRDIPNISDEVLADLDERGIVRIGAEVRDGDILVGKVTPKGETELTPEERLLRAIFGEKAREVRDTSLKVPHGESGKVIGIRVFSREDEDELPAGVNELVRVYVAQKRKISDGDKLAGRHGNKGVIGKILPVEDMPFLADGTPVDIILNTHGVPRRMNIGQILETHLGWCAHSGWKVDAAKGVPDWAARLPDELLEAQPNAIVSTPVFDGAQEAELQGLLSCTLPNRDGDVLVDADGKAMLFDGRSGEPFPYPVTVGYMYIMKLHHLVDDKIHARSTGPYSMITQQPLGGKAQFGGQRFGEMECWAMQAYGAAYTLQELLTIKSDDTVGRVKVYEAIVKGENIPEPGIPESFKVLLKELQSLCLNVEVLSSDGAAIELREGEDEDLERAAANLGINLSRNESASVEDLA

[2] = target: RNAP holoenzyme (sigma A);GlnR (Mycobacterium …, UniProt P9WGZ1;P9WGY9;P9WGY7;P9WGY5;P9WGI1;O53830 1-347;1-1178;1-1316;1-110;1-528;1-255, |); experiment: EMSA

Molecule “Mycobacterium tuberculosis (Mtb) PhoP, phosphorylated (from UniProt P71814 1-247) (natural protein)” has a stoichiometry N [1] of 2.

B1: Mtb GlnR (natural protein)
chain: MLELLLLTSELYPDPVLPALSLLPHTVRTAPAEASSLLEAGNADAVLVDARNDLSSGRGLCRLLSSTGRSIPVLAVVSEGGLVAVSADWGLDEILLLSTGPAEIDARLRLVVGRRGDLADQESLGKVSLGELVIDEGTYTARLRGRPLDLTYKEFELLKYLAQHAGRVFTRAQLLHEVWGYDFFGGTRTVDVHVRRLRAKLGPEHEALIGTVRNVGYKAVRPARGRPPAADPDDEDADPGRDGMQEPLVDPLRSQ
B1: binds (cryo-EM structure); binds (Mtb RNAP α subunit); binds (Mtb RNAP σ^A). B1: binds (Mtb RNAP β subunit).

B2: phoU promoter (mango-fused) (dsDNA)
DNA 1: ACCTCGAACACTCGTCGCCCAGAGTTCACCTTGGAGCCAGGGACGGTTCATTTGGGGTGCCGGAAACGGACGCGTACAGGCCGGAACGTGTAAGCGTGGGGGCACGGCGGGGGGCGCGAAGCCGGCACGTACGAAGGAAGGATTGGTATGTGGTATATTCGTACGTGCC
DNA 2: GGCACGTACGAATATACCACATACCAATCCTTCCTTCGTACGTGCCGGCTTCGCGCCCCCCGCCGTGCCCCCACGCTTACACGTTCCGGCCTGTACGCGTCCGTTTCCGGCACCCCAAATGAACCGTCCCTGGCTCCAAGGTGAACTCTGGGCGACGAGTGTTCGAGGT
B2: no binding [2].
